Reference: the supplement of paper PMC11811203

B1: THAP1; numbered along this chain (parent)
chain: MVQSCSAYGCKNRYDKDKPVSFHKFPLTRPSLCKEWEAAVRRKNFKPTKYSSICSEHFTPDCFKRECNNKLLKENAVPTIFLCTEPHDKKEDLLEPQEQLPPPPLPPPVSQVDAAIGLLMPPLQTPVNLSVFCDHNYTVEDTMHQRKRIHQLEQQVEKLRKKLKTAQQRCRRQERQLEKLKEVVHFQKEKDDVSERGYVILPNDYFEIVEVPA

Variants of: B1
Test: THAP1 transcriptional activity (GFP+/GFP- enrichment relative to wild-type constructs) (ratio to WT); higher = more THAP1 activity (PSMB5 reporter activation)
Details: with PSMB5 promoter-GFP reporter
Protocol: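 Deep mutational scan of human THAP1. Site-saturation single amino acid variant library (residues 2-213) was expressed by lentivirus at MOI ~0.3 in THAP1-knockout HEK-293T cells carrying an endogenous PSMB5 promoter-GFP knock-in reporter. Five days post-transduction, BFP+ cells were FACS-sorted into GFP dim and GFP bright populations and variants were counted by Illumina sequencing. Activity is the GFP-bright/GFP-dim read fold change, mean of 2 replicates, divided by the mean fold change of wild-type (synonymous) constructs in the same screen pool; WT = 1.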

Variant | THAP1 transcriptional activity
R65M | 0.623
R65C | 0.173
R65A | 0.63
R65D | 0.388
R65I | 0.626
R65F | 0.208
R65H | 0.327
R65E | 0.629
R65V | 0.559
R65Q | 0.982
R65G | 0.424
R65T | 0.797
R65P | 0.671
R65W | 0.212
R65S | 0.735
R65Y | 0.369
R65L | 1.04
R65N | 0.596
I53N | 0.0864
I53W | 0.052
I53T | 0.111
I53Q | 0.0507
I53G | 0.0813
I53D | 0.133

Variant | THAP1 transcriptional activity
I53H | 0.1
I53C | 0.164
I53F | 0.0519
I53M | 0.194
I53V | 0.447
I53Y | 0.141
I53P | 0.0932
I53S | 0.112
I53K | 0.0685
I53A | 0.136
I53R | 0.0647
I53E | 0.101
T59H | 0.511
T59D | 0.292
T59P | 0.248
T59E | 1.07
T59I | 0.147
T59Q | 0.605
T59F | 0.186
T59M | 0.544
T59C | 0.138
T59W | 0.0856
T59V | 0.269
T59N | 0.386

Variant | THAP1 transcriptional activity
T59Y | 0.0936
T59G | 0.413
T59A | 0.736
T59L | 0.372
T59R | 0.426
T59K | 0.423
P60G | 0.443
P60S | 0.985
P60W | 0.256
P60K | 0.834
P60R | 0.718
P60T | 0.758
P60C | 0.174
P60Q | 1.17
P60Y | 0.259
P60L | 0.35
P60M | 0.374
P60A | 0.758
P60D | 0.532
P60N | 0.844
P60F | 0.333
P60E | 0.745
P60H | 0.509
N68G | 0.127

Variant | THAP1 transcriptional activity
N68L | 0.131
N68I | 0.15
N68D | 0.0906
N68Q | 0.193
N68Y | 0.125
N68P | 0.161
N68T | 0.179
N68F | 0.0942
N68S | 0.192
N68W | 0.089
N68A | 0.103
N68R | 0.161
N68K | 0.162
N68M | 0.141
N68C | 0.157
N68H | 0.2
N68V | 0.125
E66F | 0.996
E66N | 2.46
E66Q | 0.814
E66V | 0.638
E66P | 0.346
E66W | 1.25
E66I | 0.457

Variant | THAP1 transcriptional activity
E66R | 0.539
E66T | 1.3
E66Y | 0.777
E66S | 1.14
E66M | 0.558
E66K | 0.629
E66A | 1.36
E66C | 1.21
E66L | 0.436
F63H | 0.0911
F63G | 0.1
F63W | 0.473
F63E | 0.0925
F63I | 0.134
F63T | 0.128
F63Q | 0.0896
F63L | 0.0863
F63S | 0.0787
F63Y | 0.623
F63V | 0.082
F63D | 0.063
F63M | 0.089
F63R | 0.084
F63C | 0.139

Variant | THAP1 transcriptional activity
F63N | 0.14
F63A | 0.117
F63P | 0.103
F58C | 0.0689
F58T | 0.0696
F58L | 0.121
F58V | 0.115
F58I | 0.0956
F58A | 0.0948
F58N | 0.0722
F58M | 0.105
F58K | 0.0827
F58H | 0.131
F58Y | 0.153
F58P | 0.0346
F58W | 0.143
F58S | 0.0937
F58R | 0.046
F58D | 0.0836
F58E | 0.149
F58G | 0.064
F58Q | 0.0792
K64P | 0.104
K64T | 0.115

Variant | THAP1 transcriptional activity
K64D | 0.151
K64A | 0.0797
K64Y | 0.0778
K64F | 0.102
K64M | 0.112
K64W | 0.0652
K64H | 0.0785
K64Q | 0.25
K64E | 0.188
K64L | 0.145
K64V | 0.215
K64G | 0.219
K64N | 0.237
K64R | 1.06
K64I | 0.159
K64C | 0.0975
K64S | 0.123
H57E | 0.0678
H57I | 0.102
H57V | 0.105
H57G | 0.0681
H57D | 0.0578
H57W | 0.0852
